In FireProtDB (doi:10.1006/jmbi.2000.4053):
Values joined by “and” are separate entries in the source; they are usually repeats but may differ in a detail not shown here. Equal entries are not always repeated.

Settings: Homo sapiens, pH 5, 25 °C
[1] = GdnHCl, Fluorescence, Sodium acetate 50mM, transition: 2, structure 1TEN
[2] = Urea, CD, Sodium acetate 50 mM, structure 1TEN
[3] = GdnHCl, CD, Sodium acetate 50 mM, structure 1TTG
[4] = GdnHCl, Fluorescence, Sodium acetate 50mM, transition: 2, structure 1FNF

Sequence of Fibronectin I1571V, P02751 (P02751 whole entry I1571V): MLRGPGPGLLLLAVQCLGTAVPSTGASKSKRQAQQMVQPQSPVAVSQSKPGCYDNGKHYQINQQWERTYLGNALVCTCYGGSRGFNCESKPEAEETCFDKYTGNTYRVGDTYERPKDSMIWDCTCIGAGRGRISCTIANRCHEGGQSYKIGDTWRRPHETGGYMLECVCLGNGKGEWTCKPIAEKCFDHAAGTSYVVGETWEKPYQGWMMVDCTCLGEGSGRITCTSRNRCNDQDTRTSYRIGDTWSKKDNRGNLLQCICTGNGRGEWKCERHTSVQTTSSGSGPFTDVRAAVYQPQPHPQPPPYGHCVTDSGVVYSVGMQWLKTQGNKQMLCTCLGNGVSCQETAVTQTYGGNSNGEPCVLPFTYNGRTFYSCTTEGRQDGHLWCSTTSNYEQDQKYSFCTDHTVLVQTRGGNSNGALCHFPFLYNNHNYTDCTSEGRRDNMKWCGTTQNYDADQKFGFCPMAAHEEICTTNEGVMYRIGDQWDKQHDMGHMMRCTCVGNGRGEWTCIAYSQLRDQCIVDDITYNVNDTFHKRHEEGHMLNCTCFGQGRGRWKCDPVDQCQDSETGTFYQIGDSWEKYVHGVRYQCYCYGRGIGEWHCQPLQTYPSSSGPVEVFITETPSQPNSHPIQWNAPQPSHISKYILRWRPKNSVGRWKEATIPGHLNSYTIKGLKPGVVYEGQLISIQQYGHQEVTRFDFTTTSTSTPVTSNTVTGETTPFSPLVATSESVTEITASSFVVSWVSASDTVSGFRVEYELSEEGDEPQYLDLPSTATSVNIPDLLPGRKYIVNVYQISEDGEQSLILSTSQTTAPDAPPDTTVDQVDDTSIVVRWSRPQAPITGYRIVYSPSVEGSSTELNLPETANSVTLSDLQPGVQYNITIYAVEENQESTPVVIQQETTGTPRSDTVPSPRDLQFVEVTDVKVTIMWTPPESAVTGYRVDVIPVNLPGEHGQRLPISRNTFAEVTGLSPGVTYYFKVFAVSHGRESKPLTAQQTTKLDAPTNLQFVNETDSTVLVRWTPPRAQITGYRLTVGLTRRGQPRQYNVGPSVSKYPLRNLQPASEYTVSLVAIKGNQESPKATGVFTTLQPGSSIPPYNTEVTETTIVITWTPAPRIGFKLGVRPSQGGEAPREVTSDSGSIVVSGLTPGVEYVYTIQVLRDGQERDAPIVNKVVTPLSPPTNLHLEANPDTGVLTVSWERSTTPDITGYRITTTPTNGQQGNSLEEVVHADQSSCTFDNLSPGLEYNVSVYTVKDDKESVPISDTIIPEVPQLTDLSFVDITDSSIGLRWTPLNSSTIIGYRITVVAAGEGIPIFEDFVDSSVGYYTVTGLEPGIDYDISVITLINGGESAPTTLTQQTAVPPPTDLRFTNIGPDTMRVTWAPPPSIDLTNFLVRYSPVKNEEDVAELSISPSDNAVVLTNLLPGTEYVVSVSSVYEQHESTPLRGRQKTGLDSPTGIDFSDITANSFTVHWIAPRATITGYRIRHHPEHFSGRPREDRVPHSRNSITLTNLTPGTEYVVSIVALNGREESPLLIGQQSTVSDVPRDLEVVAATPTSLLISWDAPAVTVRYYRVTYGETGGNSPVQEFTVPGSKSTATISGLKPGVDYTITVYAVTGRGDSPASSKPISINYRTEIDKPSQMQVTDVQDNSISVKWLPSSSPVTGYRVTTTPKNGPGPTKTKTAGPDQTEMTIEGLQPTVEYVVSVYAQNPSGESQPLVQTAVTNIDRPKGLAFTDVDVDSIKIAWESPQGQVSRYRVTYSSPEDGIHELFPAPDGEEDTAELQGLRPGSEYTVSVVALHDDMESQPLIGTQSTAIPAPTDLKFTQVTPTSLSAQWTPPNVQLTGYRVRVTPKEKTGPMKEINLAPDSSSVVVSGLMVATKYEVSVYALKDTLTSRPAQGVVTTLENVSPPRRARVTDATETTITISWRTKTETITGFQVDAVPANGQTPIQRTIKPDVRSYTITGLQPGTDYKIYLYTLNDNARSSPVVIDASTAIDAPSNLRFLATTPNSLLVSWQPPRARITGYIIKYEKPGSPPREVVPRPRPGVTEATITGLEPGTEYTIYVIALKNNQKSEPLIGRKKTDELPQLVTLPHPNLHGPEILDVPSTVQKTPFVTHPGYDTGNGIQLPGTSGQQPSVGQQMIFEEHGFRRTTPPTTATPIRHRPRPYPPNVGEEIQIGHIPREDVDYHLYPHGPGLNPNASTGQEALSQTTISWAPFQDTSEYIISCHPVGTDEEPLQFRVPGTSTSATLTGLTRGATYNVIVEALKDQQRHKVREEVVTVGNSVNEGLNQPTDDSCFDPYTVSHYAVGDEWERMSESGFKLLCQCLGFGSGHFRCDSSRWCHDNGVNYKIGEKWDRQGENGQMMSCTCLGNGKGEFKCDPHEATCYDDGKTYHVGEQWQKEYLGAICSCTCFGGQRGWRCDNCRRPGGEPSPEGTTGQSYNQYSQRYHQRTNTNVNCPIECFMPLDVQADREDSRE
Sequence of Fibronectin P1562A, P02751 (P02751 whole entry P1562A): as the sequence (P02751 whole entry I1571V) above, with P1562A, V1571I counted along it
Sequence of Fibronectin Y1629A, P02751 (P02751 whole entry Y1629A): as the sequence (P02751 whole entry I1571V) above, with V1571I, Y1629A counted along it
Sequence of Fibronectin P1542A, P02751 (P02751 whole entry P1542A): as the sequence (P02751 whole entry I1571V) above, with P1542A, V1571I counted along it
Sequence of Fibronectin V1587A, P02751 (P02751 whole entry V1587A): as the sequence (P02751 whole entry I1571V) above, with V1571I, V1587A counted along it
Sequence of Fibronectin I1625V, P02751 (P02751 whole entry I1625V): as the sequence (P02751 whole entry I1571V) above, with V1571I, I1625V counted along it
Sequence of Fibronectin S1622A, P02751 (P02751 whole entry S1622A): as the sequence (P02751 whole entry I1571V) above, with V1571I, S1622A counted along it
Sequence of Fibronectin V1566A, P02751 (P02751 whole entry V1566A): as the sequence (P02751 whole entry I1571V) above, with V1566A, V1571I counted along it
Sequence of Fibronectin V1603A, P02751 (P02751 whole entry V1603A): as the sequence (P02751 whole entry I1571V) above, with V1571I, V1603A counted along it
Sequence of Fibronectin I1607A, P02751 (P02751 whole entry I1607A): as the sequence (P02751 whole entry I1571V) above, with V1571I, I1607A counted along it
Sequence of Fibronectin F1585A, P02751 (P02751 whole entry F1585A): as the sequence (P02751 whole entry I1571V) above, with V1571I, F1585A counted along it
Sequence of Fibronectin I1627A, P02751 (P02751 whole entry I1627A): as the sequence (P02751 whole entry I1571V) above, with V1571I, I1627A counted along it
Sequence of Fibronectin Y1569F, P02751 (P02751 whole entry Y1569F): as the sequence (P02751 whole entry I1571V) above, with Y1569F, V1571I counted along it
Sequence of Fibronectin I1571A, P02751 (P02751 whole entry I1571A): as the sequence (P02751 whole entry I1571V) above, with V1571A counted along it
Sequence of Fibronectin Y1573A, P02751 (P02751 whole entry Y1573A): as the sequence (P02751 whole entry I1571V) above, with V1571I, Y1573A counted along it
Sequence of Fibronectin Y1569A, P02751 (P02751 whole entry Y1569A): as the sequence (P02751 whole entry I1571V) above, with Y1569A, V1571I counted along it
Sequence of Fibronectin Y1569L, P02751 (P02751 whole entry Y1569L): as the sequence (P02751 whole entry I1571V) above, with Y1569L, V1571I counted along it
Sequence of Fibronectin I1596A, P02751 (P02751 whole entry I1596A): as the sequence (P02751 whole entry I1571V) above, with V1571I, I1596A counted along it

Tenascin, P24821 P865A
ddG of mutation (higher = less stable) [1]: 0.93 kcal/mol | denaturant m value [1]: 4.32 kcal/mol/M | denaturant midpoint (higher = more stable) [1]: 1.2 M | ddG of mutation (higher = less stable) [2]: 0.93 kcal/mol | denaturant m value [2]: 1.2 kcal/mol/M | denaturant midpoint (higher = more stable) [2]: 4.55 M

Fibronectin I1571V, P02751
ddG of mutation (higher = less stable) [3]: 0.41 kcal/mol | denaturant m value [3]: 6.9 kcal/mol/M | denaturant midpoint (higher = more stable) [3]: 1.41 M

Fibronectin Y1573A, P02751
ddG of mutation (higher = less stable) [3]: 2.29 kcal/mol | denaturant m value [3]: 7.9 kcal/mol/M | denaturant midpoint (higher = more stable) [3]: 1.12 M

Fibronectin V1587A, P02751
ddG of mutation (higher = less stable) [3]: 2.42 kcal/mol | denaturant m value [3]: 5.7 kcal/mol/M | denaturant midpoint (higher = more stable) [3]: 1.1 M

Tenascin, P24821 T867S
ddG of mutation (higher = less stable) [2]: 1.22 kcal/mol | denaturant m value [2]: 1.2 kcal/mol/M | denaturant midpoint (higher = more stable) [2]: 4.32 M

Tenascin, P24821 L873A
ddG of mutation (higher = less stable) [2]: 3.06 kcal/mol | denaturant m value [2]: 1.4 kcal/mol/M | denaturant midpoint (higher = more stable) [2]: 2.81 M

Tenascin, P24821 S882A
ddG of mutation (higher = less stable) [1]: 2.82 kcal/mol | denaturant m value [1]: 5.23 kcal/mol/M | denaturant midpoint (higher = more stable) [1]: 1.1 M

Fibronectin I1607A, P02751
ddG of mutation (higher = less stable) [3]: 3.72 kcal/mol | denaturant m value [3]: 5.6 kcal/mol/M | denaturant midpoint (higher = more stable) [3]: 0.9 M

Fibronectin I1596A, P02751
ddG of mutation (higher = less stable) [3]: 3.66 kcal/mol | denaturant m value [3]: 7.2 kcal/mol/M | denaturant midpoint (higher = more stable) [3]: 0.91 M

Tenascin, P24821 L863A
ddG of mutation (higher = less stable) [1]: 4.22 kcal/mol | denaturant m value [1]: 4.55 kcal/mol/M | denaturant midpoint (higher = more stable) [1]: 1.2 M | ddG of mutation (higher = less stable) [2]: 4.22 kcal/mol | denaturant m value [2]: 1.5 kcal/mol/M | denaturant midpoint (higher = more stable) [2]: 1.86 M

Tenascin, P24821 I830V
ddG of mutation (higher = less stable) [1]: 0.32 kcal/mol | denaturant m value [1]: 2.63 kcal/mol/M | denaturant midpoint (higher = more stable) [1]: 1.2 M | ddG of mutation (higher = less stable) [2]: 0.32 kcal/mol | denaturant m value [2]: 1.2 kcal/mol/M | denaturant midpoint (higher = more stable) [2]: 5.06 M

Fibronectin V1566A, P02751
ddG of mutation (higher = less stable) [3]: 1.45 kcal/mol | denaturant m value [3]: 6.6 kcal/mol/M | denaturant midpoint (higher = more stable) [3]: 1.25 M

Tenascin, P24821 V811A
ddG of mutation (higher = less stable) [1]: 1.36 kcal/mol | denaturant m value [1]: 3.03 kcal/mol/M | denaturant midpoint (higher = more stable) [1]: 1.3 M | ddG of mutation (higher = less stable) [2]: 1.36 kcal/mol | denaturant m value [2]: 1.2 kcal/mol/M | denaturant midpoint (higher = more stable) [2]: 4.21 M

Tenascin, P24821 P806A
ddG of mutation (higher = less stable) [1]: 2.74 kcal/mol | denaturant m value [1]: 2.98 kcal/mol/M | denaturant midpoint (higher = more stable) [1]: 1.3 M | ddG of mutation (higher = less stable) [2]: 2.74 kcal/mol | denaturant m value [2]: 1.1 kcal/mol/M | denaturant midpoint (higher = more stable) [2]: 3.07 M

Tenascin, P24821 Y858A
ddG of mutation (higher = less stable) [1]: 1.38 kcal/mol | denaturant midpoint (higher = more stable) [1]: 1.3 M | ddG of mutation (higher = less stable) [2]: 1.38 kcal/mol | denaturant m value [2]: 1.3 kcal/mol/M | denaturant midpoint (higher = more stable) [2]: 4.19 M

Fibronectin S1622A, P02751
ddG of mutation (higher = less stable) [3]: -0.11 kcal/mol | denaturant m value [3]: 6.5 kcal/mol/M | denaturant midpoint (higher = more stable) [3]: 1.49 M

Fibronectin Y1569L, P02751
ddG of mutation (higher = less stable) [3]: 2.81 kcal/mol and 2.4 kcal/mol | denaturant m value [3]: 6.6 kcal/mol/M | denaturant midpoint (higher = more stable) [3]: 1.04 M

Tenascin, P24821 Y858G
denaturant m value [1]: 4.19 kcal/mol/M | denaturant midpoint (higher = more stable) [1]: 1.3 M | ddG of mutation (higher = less stable) [2]: 4.14 kcal/mol and 2.76 kcal/mol | denaturant m value [2]: 1.3 kcal/mol/M | denaturant midpoint (higher = more stable) [2]: 1.93 M

Tenascin, P24821 E887A
ddG of mutation (higher = less stable) [1]: -1.61 kcal/mol | denaturant m value [1]: 5.04 kcal/mol/M | denaturant midpoint (higher = more stable) [1]: 1.3 M | ddG of mutation (higher = less stable) [2]: -1.61 kcal/mol | denaturant m value [2]: 1.2 kcal/mol/M | denaturant midpoint (higher = more stable) [2]: 6.64 M

Tenascin, P24821 I849A
ddG of mutation (higher = less stable) [1]: 2.19 kcal/mol | denaturant m value [1]: 2.87 kcal/mol/M | denaturant midpoint (higher = more stable) [1]: 1.1 M | ddG of mutation (higher = less stable) [2]: 2.19 kcal/mol | denaturant m value [2]: 1.1 kcal/mol/M | denaturant midpoint (higher = more stable) [2]: 3.52 M

Tenascin, P24821 I821A
ddG of mutation (higher = less stable) [1]: 3.67 kcal/mol | denaturant m value [1]: 5.13 kcal/mol/M | denaturant midpoint (higher = more stable) [1]: 1.2 M | ddG of mutation (higher = less stable) [2]: 3.67 kcal/mol | denaturant m value [2]: 1.3 kcal/mol/M | denaturant midpoint (higher = more stable) [2]: 2.31 M

Tenascin, P24821 Y837A
ddG of mutation (higher = less stable) [2]: 4.22 kcal/mol | denaturant m value [2]: 1.5 kcal/mol/M | denaturant midpoint (higher = more stable) [2]: 1.86 M

Fibronectin I1571A, P02751
ddG of mutation (higher = less stable) [3]: 5.02 kcal/mol | denaturant m value [3]: 6.9 kcal/mol/M | denaturant midpoint (higher = more stable) [3]: 0.7 M

Fibronectin P1562A, P02751
ddG of mutation (higher = less stable) [3]: 0.48 kcal/mol | denaturant m value [3]: 6.5 kcal/mol/M | denaturant midpoint (higher = more stable) [3]: 1.4 M

Fibronectin I1627A, P02751
ddG of mutation (higher = less stable) [3]: 0.35 kcal/mol | denaturant m value [3]: 6 kcal/mol/M | denaturant midpoint (higher = more stable) [3]: 1.42 M | ddG of mutation (higher = less stable) [4]: 3.66 kcal/mol | denaturant m value [4]: 7.2 kcal/mol/M | denaturant midpoint (higher = more stable) [4]: 1.04 M | unfolding free energy [4]: 5.74 kcal/mol

Fibronectin P1542A, P02751
ddG of mutation (higher = less stable) [3]: -0.11 kcal/mol | denaturant m value [3]: 6.4 kcal/mol/M | denaturant midpoint (higher = more stable) [3]: 1.49 M

Tenascin, P24821 I833A
ddG of mutation (higher = less stable) [1]: 3.28 kcal/mol | denaturant m value [1]: 4.91 kcal/mol/M | denaturant midpoint (higher = more stable) [1]: 1.1 M | ddG of mutation (higher = less stable) [2]: 3.28 kcal/mol | denaturant m value [2]: 1.2 kcal/mol/M | denaturant midpoint (higher = more stable) [2]: 2.63 M

Tenascin, P24821 V871A
ddG of mutation (higher = less stable) [2]: 2.81 kcal/mol | denaturant m value [2]: 1.3 kcal/mol/M | denaturant midpoint (higher = more stable) [2]: 3.01 M

Fibronectin I1625V, P02751
ddG of mutation (higher = less stable) [3]: 0.35 kcal/mol | denaturant m value [3]: 6.5 kcal/mol/M | denaturant midpoint (higher = more stable) [3]: 1.42 M

Fibronectin F1585A, P02751
ddG of mutation (higher = less stable) [3]: 2.16 kcal/mol | denaturant m value [3]: 6.8 kcal/mol/M | denaturant midpoint (higher = more stable) [3]: 1.14 M

Tenascin, P24821 P826A
ddG of mutation (higher = less stable) [2]: 1.73 kcal/mol | denaturant m value [2]: 1 kcal/mol/M | denaturant midpoint (higher = more stable) [2]: 3.9 M

Fibronectin Y1569F, P02751
ddG of mutation (higher = less stable) [3]: 0.41 kcal/mol | denaturant m value [3]: 6.3 kcal/mol/M | denaturant midpoint (higher = more stable) [3]: 1.41 M

Fibronectin Y1569A, P02751
ddG of mutation (higher = less stable) [3]: 4.37 kcal/mol and 3.96 kcal/mol | denaturant m value [3]: 6.8 kcal/mol/M | denaturant midpoint (higher = more stable) [3]: 0.8 M

Tenascin, P24821 Y869F
ddG of mutation (higher = less stable) [1]: 3.13 kcal/mol | denaturant m value [1]: 3.01 kcal/mol/M | denaturant midpoint (higher = more stable) [1]: 1.3 M | ddG of mutation (higher = less stable) [2]: 3.13 kcal/mol | denaturant m value [2]: 1.3 kcal/mol/M | denaturant midpoint (higher = more stable) [2]: 2.75 M

Fibronectin V1603A, P02751
ddG of mutation (higher = less stable) [3]: 0.67 kcal/mol | denaturant m value [3]: 6.12 kcal/mol/M | denaturant midpoint (higher = more stable) [3]: 1.37 M

Tenascin, P24821 I821V
ddG of mutation (higher = less stable) [1]: 0.23 kcal/mol | denaturant m value [1]: 3.9 kcal/mol/M | denaturant midpoint (higher = more stable) [1]: 1 M | ddG of mutation (higher = less stable) [2]: 0.23 kcal/mol | denaturant m value [2]: 1.2 kcal/mol/M | denaturant midpoint (higher = more stable) [2]: 5.13 M

Tenascin, P24821 E887G
ddG of mutation (higher = less stable) [1]: 0.34 kcal/mol | ddG of mutation (higher = less stable) [2]: 0.34 kcal/mol | denaturant m value [2]: 1.3 kcal/mol/M | denaturant midpoint (higher = more stable) [2]: 5.04 M

Fibronectin Y1629A, P02751
ddG of mutation (higher = less stable) [3]: 1.19 kcal/mol | denaturant m value [3]: 6.6 kcal/mol/M | denaturant midpoint (higher = more stable) [3]: 1.29 M

Tenascin, P24821 I833V
ddG of mutation (higher = less stable) [1]: 0.5 kcal/mol | denaturant m value [1]: 1.8 kcal/mol/M | denaturant midpoint (higher = more stable) [1]: 1.4 M | ddG of mutation (higher = less stable) [2]: 0.5 kcal/mol | denaturant m value [2]: 1.1 kcal/mol/M | denaturant midpoint (higher = more stable) [2]: 4.91 M
